Measured values published in publication PMC3813556, “Probing the Dynamic Process of Encapsulation in Escherichia coli GroEL” (PLoS ONE, 2013).

B1: GroES (natural protein, E. coli, UniProt P0A6F9 1-97, looked up)
chain: MNIRPLHDRVIVKRKEVETKSAGGIVLTGSAAAKSTRGEVLAVGNGRILENGEVKPLDVKVGDIVIFNDGYGVKSEKIDNEEVLIMSESDILAIVEA
notes: GroES, co-chaperonin of the E. coli chaperonin GroE; also called wild type GroES; co-chaperonin GroES

How the values were obtained:
GroEL SR-1 RW (E. coli) = GroEL SR-1 RW (E. coli) (UniProt P0A6F5); assay: FRET or BRET; stopped-flow intermolecular FRET from the apical domain tryptophan of the GroEL mutant to prebound acid-unfolded AEDANS-GroELwt (equimolar); decrease of FRET after addition of ATP and GroES
GroEL R231W = target: T1, GroEL R231W (E. coli, UniProt P0A6F5 1-548, R231W); assay: stopped-flow tryptophan fluorescence; GroEL with prebound Gdn-HCl-unfolded MDH (5 min pre-incubation at 25°C); 0.625 µM GroEL oligomer; 1 mM ATP without or with equimolar GroES; details: both partners purified
T1 construct: GroEL, E. coli, with a unique tryptophan in the apical domain; Double ring 14-mer; copies: 14

Molecule | k of PhaseFRET2 (rate of release of the bound unfolded protein) (GroEL SR-1 RW (E. coli)) [s⁻¹] | k of PhaseFRET (rate of release of the bound unfolded protein) (GroEL SR-1 RW (E. coli)) [s⁻¹] | binding result (GroEL R231W)
AEDANS-labelled, acid-unfolded wild type GroEL (from UniProt P0A6F5 1-548) (natural protein) | 0.21 | 4.1 | 
B1 |  |  | binds
